In the supplement of paper PMC9170038:

Tested on: MS2 coat protein
Assay: apparent KD of MS2 coat protein; designed switch direction (-1 OFF switch, 1 ON switch): 1; higher = weaker reporter binding
In short: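 Transcription of designed RNA switches on Illumina chips was done by stalled E. coli RNA polymerase. SNAP-549-labelled MS2 coat protein was then titrated in doubling steps from 0.7 or 1.5 nM to 3 µM, with steps of 0.8–1.5 h at the lowest and 10–20 min at the highest concentration. The per-design median over clusters of curve-fitted normalised fluorescence is reported as apparent KD.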

[1] = Eterna round: R95, input ligand: FMN 200 uM
[2] = Eterna round: R95, input ligand: microRNA oligo, concentration not stated
[3] = Eterna round: R95, input ligand: none
[4] = input ligand: microRNA oligo, concentration not stated

Sequence	apparent KD of MS2 coat protein [1] [nM]	apparent KD of MS2 coat protein [2] [nM]	apparent KD of MS2 coat protein [3] [nM]	apparent KD of MS2 coat protein [4] [nM]	apparent KD of MS2 coat protein (input ligand: FMN 200 uM) [nM]	apparent KD of MS2 coat protein (input ligand: none) [nM]
UGUUAACAUGAGGAUCACCCAUGUCAAAUGAAUCGAGGAUAUGGGAAGUAAUAAGAUAAACCAGAAGGCGAAGUUG [Altered State 1-16 - Jieux - Same State 1] (puzzle: Same State 1)	54.7	302	229	–	–	–
UGUUAGUAGACAGGAUAUUGAAUGUUAAGUAUUAACAUGAGGAUCACCCAUGUAUUUGAUUGGUACAAGAAGGGUCAUGUUUGU [JR_SSNG2_Sub014] (Eterna round: R96, puzzle: Same State NG 2)	–	–	–	290	–	–
UGUUGUAUUACAGGAUAUCUAGGAUUUUUAUUUAGAGAAGGGUAUUCACAUGAGGAUCACCCAUGUAUAUACGAGGAAGUUGUG [JMF's solution 31] (Eterna round: R96, puzzle: Same State NG 1)	–	–	–	30.6	–	–
UGUUGUAUUACAGGAUAUCUAGUAUUUUUACUUAGAGAAGGGUAUUCACAUGAGGAUCACCCAUGUAUAUACGAGGAAGUUGUG [JMF's solution 50] (Eterna round: R96, puzzle: Same State NG 1)	–	–	–	22.9	–	–
UGUUGUAUUACAGGAUAUCUAGUAUUUUUAGUUAGAGAAGGGUAUUCACAUGAGGAUCACCCAUGUAUAUACGAGGAAGUUGUG [JMF's solution 49] (Eterna round: R96, puzzle: Same State NG 1)	–	–	–	36.9	43.7	45.7
UGUUGUAUUACAGGAUAUCUAGUAUUUUUAUGUAGAGAAGGGUAUUCACAUGAGGAUCACCCAUGUAUAUACGAGGAAGUUGUG [JMF's solution 52] (Eterna round: R96, puzzle: Same State NG 1)	–	–	–	28.9	–	–
UGUUGUAUUACAGGAUAUCUAUGAUUUGUAUUUAGAGAAGGGUAUUCACAUGAGGAUCACCCAUGUAUAUACGAGGAAGUUGUG [JMF's solution 62] (Eterna round: R96, puzzle: Same State NG 1)	–	–	–	48.5	67.5	62.3
UGUUGUAUUACAGGAUAUCUAUUAGUUUAAUUUAGAGAAGGGUAUUCACAUGAGGAUCACCCAUGUAUAUACGAGGAAGUUGUG [JMF's solution 93] (Eterna round: R96, puzzle: Same State NG 1)	–	–	–	39.5	–	–
UGUUGUAUUACAGGAUAUCUAUUAGUUUUAGUUAGAGAAGGGUAUUCACAUGAGGAUCACCCAUGUAUAUACGAGGAAGUUGUG [JMF's solution 99] (Eterna round: R96, puzzle: Same State NG 1)	–	–	–	34.6	–	–
UGUUGUAUUACAGGAUAUCUAUUAGUUUUAUAUAGAGAAGGGUAUUCACAUGAGGAUCACCCAUGUAUAUACGAGGAAGUUGUG [JMF's solution 100] (Eterna round: R96, puzzle: Same State NG 1)	–	–	–	36.8	–	–
UGUUGUAUUACAGGAUAUCUAUUAGUUUUUUUUAGAGAAGGGUAUUCACAUGAGGAUCACCCAUGUAUAUACGAGGAAGUUGUG [JMF's solution 96] (Eterna round: R96, puzzle: Same State NG 1)	–	–	–	36.8	–	–
UGUUGUUAAUUAGGAUAUGGGCACAUGAGGAUCACCCAUGUAUUUUCGAUGCUAUGUGGAGACGUCUAGAAGGAAUGGCUAACA [SameState NG2 #89] (Eterna round: R96, puzzle: Same State NG 2)	–	–	–	212	205	219
UGUUGUUAAUUAGGAUAUGGUCACAUGAGGAUCACCCAUGUAAUGUCGAUGCUAUGUGGAUCUGAUCAGAAGGAAUGGCUAACA [SameState NG2 #96] (Eterna round: R96, puzzle: Same State NG 2)	–	–	–	105	108	137
UGUUGUUAAUUAGGAUAUGGUCACAUGAGGAUCACCCAUGUAAUGUCGAUGCUAUGUGGAUUUGAUCAGAAGGAAUGGUUAACA [SameState NG2 #98] (Eterna round: R96, puzzle: Same State NG 2)	–	–	–	62.3	49.2	90.4
UUAAAACAUGAGGAUCACCCAUGUAAUAAUAUGGGAGGAUAUCAGAUUUAAUUUAAUUUAUGAGAAGGCCUAAAUG [Mat - Same State 1 - Mod of Eli - D60] (puzzle: Same State 1)	65.4	407	1150	–	–	–
UUAAAACAUGAGGAUCACCCAUGUCAACAAAGUCGAGGAUAUGGGCAAAUAAAAUAAGAACCAGAAGGCGAAUAAG [salish99_SS1_r3_005] (puzzle: Same State 1)	36.9	221	314	–	–	–
UUAAAACAUGAGGAUCACCCAUGUCAUCUAAGUCGAGGAUAUGGGAAUUAAUUAAUUAAACCAGAAGGCGAAUAUU [Mat - Same State 1 - D90] (puzzle: Same State 1)	38.6	439	543	–	–	–
UUAAAACAUGAGGAUCACCCAUGUCAUCUAAGUCGAGGAUAUGGGCAUAUAAUAUAAGAACCAGAAGGCGAAUAUU [Mat - Same State 1 - Mod of UCT - D26] (puzzle: Same State 1)	113	37.7	58.4	–	–	–
UUAACAUGAGGAUCACCCAUGUAUAGGGAGUUAGCAAUUGGACAGGAUAUUGAAGAUGUAGAUAGCAAGAAGGGUCGGUAGUCU [JR_SSNG3_Sub002] (Eterna round: R96, puzzle: Same State NG 3)	–	–	–	32.9	36.8	46.7
UUAACAUGAGGAUCACCCAUGUAUAGGGAGUUUGCAAUUUGACAGGAUAUUGAAGAUGUAGAUAGCAAGAAGGGUCGGUAGUCU [JR_SSNG3_Sub004] (Eterna round: R96, puzzle: Same State NG 3)	–	–	–	32.4	46.1	43.9
UUAAGCAACGGGCAGGAUAUGUAUUAAAAUACAUGAGGAUCACCCAUGUGCAGGUGUAACACCUGACAGAAGGGCCAAUCGCUGC [Soteed - 7] (puzzle: Same State 2)	63.8	531	900	–	–	–
UUAAGCAACGGGCAGGAUAUGUAUUAAAAUACAUGAGGAUCACCCAUGUGCAGGUGUAACACCUGACAGAAGGGCCAAUCGGUGC [Soteed - 8] (puzzle: Same State 2)	39.5	256	409	–	–	–
UUAAUAAUGAUAGGAUAUACAUGAGGAAUUCUCGUAGAAGGAUCAUGACAUGAGGAUCACCCAUGUAACGCUCAGAAGAGCGUA [Mat - Same State NG 1 - JL mod - D37] (Eterna round: R96, puzzle: Same State NG 1)	–	–	–	184	493	730
UUAAUAAUGUUAGGAUAUACAUGAGGAAUCCUCGUAGAAGGAACAUGACAUGAGGAUCACCCAUGUAGCGCUCAGAAGAGCGCA [Mat - Same State NG 1 - JL mod - D47] (Eterna round: R96, puzzle: Same State NG 1)	–	–	–	31.3	138	135
